Laboratory results taken from publication PMC11904967.

Target: pyruvate kinase PKM (PKM2), endogenous in PANC‐1 cells (human (endogenous in PANC-1)) (UniProt P14618)
Experiment: western blotting of monomers and dimers; AsPC-1 and PANC-1 cells transduced with HACD2 WT, HACD2 MUT or vector, or with HACD2 knockdown; how dimers were kept on the gel is not told

Sequence of pyruvate kinase PKM (PKM2), endogenous in PANC‐1 cells, P14618 1-531 (natural protein; other documents disagree on this pair) (P14618 whole entry): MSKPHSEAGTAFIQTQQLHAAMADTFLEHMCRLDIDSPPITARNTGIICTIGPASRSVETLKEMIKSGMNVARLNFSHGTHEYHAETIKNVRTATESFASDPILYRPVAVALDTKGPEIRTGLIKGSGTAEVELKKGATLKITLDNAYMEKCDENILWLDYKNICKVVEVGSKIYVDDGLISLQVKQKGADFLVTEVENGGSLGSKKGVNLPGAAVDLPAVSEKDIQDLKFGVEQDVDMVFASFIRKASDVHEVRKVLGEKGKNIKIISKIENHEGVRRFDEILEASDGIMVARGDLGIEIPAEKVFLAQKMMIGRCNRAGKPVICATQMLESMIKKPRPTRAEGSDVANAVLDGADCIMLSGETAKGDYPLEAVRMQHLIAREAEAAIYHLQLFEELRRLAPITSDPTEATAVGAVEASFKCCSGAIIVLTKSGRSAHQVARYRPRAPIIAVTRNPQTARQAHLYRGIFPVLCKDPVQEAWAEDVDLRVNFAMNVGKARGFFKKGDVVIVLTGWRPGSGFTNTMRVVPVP

stoichiometry N: 2
Substance: pyruvate kinase PKM (PKM2), endogenous in PANC‐1 cells, P14618 1-531 (natural protein; other documents disagree on this pair)
